Laboratory results published in article PMC5531659, “Small molecule perturbation of the CAND1-Cullin1-ubiquitin cycle stabilizes p53 and triggers Epstein-Barr virus reactivation” (PLoS Pathogens, 2017).

Molecular target: T1, Cullin 1 (human (endogenous in Mutu I and 293T), UniProt Q13616 1-776)
T1 construct: Cullin 1, human, endogenous protein of Mutu I and 293T cells; Neddylated and deneddylated forms are seen on blots; also called Cul1; Cul 1; source: endogenous, Mutu I lysate; endogenous, 293T lysate
Test: co-IP; Mutu I total cell lysates (cells treated with DMSO or C60 for 48 hrs); IP with antibody to Cullin 1, CAND1 or IgG on protein A beads in SDS-free lysis buffer (50 mM Tris-HCl pH 7.6, 120 mM NaCl, 0.1% NP40, 1 mM EDTA), overnight 4°C; Western blot for Cullin 1 or CAND1
Settings: partners not purified

T1 sequence (Q13616 whole entry): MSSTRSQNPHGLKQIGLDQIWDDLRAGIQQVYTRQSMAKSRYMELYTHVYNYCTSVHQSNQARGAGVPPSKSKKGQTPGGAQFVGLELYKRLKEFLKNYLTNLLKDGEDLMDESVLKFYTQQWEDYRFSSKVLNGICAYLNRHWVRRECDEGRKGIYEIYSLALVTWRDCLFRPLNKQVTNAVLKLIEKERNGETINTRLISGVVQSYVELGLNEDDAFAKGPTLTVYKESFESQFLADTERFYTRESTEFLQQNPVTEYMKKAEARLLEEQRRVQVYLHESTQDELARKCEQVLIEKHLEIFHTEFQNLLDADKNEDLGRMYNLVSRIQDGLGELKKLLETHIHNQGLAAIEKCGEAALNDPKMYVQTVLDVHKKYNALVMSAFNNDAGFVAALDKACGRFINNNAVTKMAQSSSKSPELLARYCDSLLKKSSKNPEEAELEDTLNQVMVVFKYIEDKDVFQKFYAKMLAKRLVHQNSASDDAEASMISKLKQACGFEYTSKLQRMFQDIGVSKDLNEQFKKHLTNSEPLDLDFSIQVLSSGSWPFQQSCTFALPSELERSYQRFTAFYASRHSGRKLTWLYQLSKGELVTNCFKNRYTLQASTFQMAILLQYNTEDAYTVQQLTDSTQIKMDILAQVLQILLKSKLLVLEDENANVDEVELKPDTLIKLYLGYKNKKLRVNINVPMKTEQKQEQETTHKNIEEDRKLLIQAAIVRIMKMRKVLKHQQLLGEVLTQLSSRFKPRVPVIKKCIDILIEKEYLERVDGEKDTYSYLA

- fold decrease of the association in C60-treated against DMSO-treated cells: ~5 fold
B1: Cullin-associated and neddylation-dissociated 1 (CAND1) (natural protein, human (endogenous in Mutu I and 293T), UniProt Q86VP6 1-1230, looked up)
chain: MASASYHISNLLEKMTSSDKDFRFMATNDLMTELQKDSIKLDDDSERKVVKMILKLLEDKNGEVQNLAVKCLGPLVSKVKEYQVETIVDTLCTNMLSDKEQLRDISSIGLKTVIGELPPASSGSALAANVCKKITGRLTSAIAKQEDVSVQLEALDIMADMLSRQGGLLVNFHPSILTCLLPQLTSPRLAVRKRTIIALGHLVMSCGNIVFVDLIEHLLSELSKNDSMSTTRTYIQCIAAISRQAGHRIGEYLEKIIPLVVKFCNVDDDELREYCIQAFESFVRRCPKEVYPHVSTIINICLKYLTYDPNYNYDDEDEDENAMDADGGDDDDQGSDDEYSDDDDMSWKVRRAAAKCLDAVVSTRHEMLPEFYKTVSPALISRFKEREENVKADVFHAYLSLLKQTRPVQSWLCDPDAMEQGETPLTMLQSQVPNIVKALHKQMKEKSVKTRQCCFNMLTELVNVLPGALTQHIPVLVPGIIFSLNDKSSSSNLKIDALSCLYVILCNHSPQVFHPHVQALVPPVVACVGDPFYKITSEALLVTQQLVKVIRPLDQPSSFDATPYIKDLFTCTIKRLKAADIDQEVKERAISCMGQIICNLGDNLGSDLPNTLQIFLERLKNEITRLTTVKALTLIAGSPLKIDLRPVLGEGVPILASFLRKNQRALKLGTLSALDILIKNYSDSLTAAMIDAVLDELPPLISESDMHVSQMAISFLTTLAKVYPSSLSKISGSILNELIGLVRSPLLQGGALSAMLDFFQALVVTGTNNLGYMDLLRMLTGPVYSQSTALTHKQSYYSIAKCVAALTRACPKEGPAVVGQFIQDVKNSRSTDSIRLLALLSLGEVGHHIDLSGQLELKSVILEAFSSPSEEVKSAASYALGSISVGNLPEYLPFVLQEITSQPKRQYLLLHSLKEIISSASVVGLKPYVENIWALLLKHCECAEEGTRNVVAECLGKLTLIDPETLLPRLKGYLISGSSYARSSVVTAVKFTISDHPQPIDPLLKNCIGDFLKTLEDPDLNVRRVALVTFNSAAHNKPSLIRDLLDTVLPHLYNETKVRKELIREVEMGPFKHTVDDGLDIRKAAFECMYTLLDSCLDRLDIFEFLNHVEDGLKDHYDIKMLTFLMLVRLSTLCPSAVLQRLDRLVEPLRATCTTKVKANSVKQEFEKQDELKRSAMRAVAALLTIPEAEKSPLMSEFQSQISSNPELAAIFESIQKDSSSTNLESMDTS
notes: CAND1, human, endogenous protein of Mutu I and 293T cells; also called TIP120A; source: endogenous, Mutu I lysate; endogenous, 293T lysate
